From paper PMC11252414, “Enhancing the performance of porous silicon biosensors: the interplay of nanostructure design and microfluidic integration” come the findings set out here.

What all share (conditions): protein: commercial; label: none; single strand
For data set [1], the target named is T1, lactoferrin (LF) (bovine (milk), UniProt P24627 20-708). The data set is described as follows: RIFTS (porous Si interferometry); impeller-integrated microchannel, 30 ul/min; Selection buffer: PBS (137 mM NaCl, 10 mM Na2HPO4, 2.7 mM KCl, 2 mM KH2PO4) + 1 mM MgCl2, pH 7.4, room temperature; GI fluid at 37 C.
T1 sequence (P24627 20-708): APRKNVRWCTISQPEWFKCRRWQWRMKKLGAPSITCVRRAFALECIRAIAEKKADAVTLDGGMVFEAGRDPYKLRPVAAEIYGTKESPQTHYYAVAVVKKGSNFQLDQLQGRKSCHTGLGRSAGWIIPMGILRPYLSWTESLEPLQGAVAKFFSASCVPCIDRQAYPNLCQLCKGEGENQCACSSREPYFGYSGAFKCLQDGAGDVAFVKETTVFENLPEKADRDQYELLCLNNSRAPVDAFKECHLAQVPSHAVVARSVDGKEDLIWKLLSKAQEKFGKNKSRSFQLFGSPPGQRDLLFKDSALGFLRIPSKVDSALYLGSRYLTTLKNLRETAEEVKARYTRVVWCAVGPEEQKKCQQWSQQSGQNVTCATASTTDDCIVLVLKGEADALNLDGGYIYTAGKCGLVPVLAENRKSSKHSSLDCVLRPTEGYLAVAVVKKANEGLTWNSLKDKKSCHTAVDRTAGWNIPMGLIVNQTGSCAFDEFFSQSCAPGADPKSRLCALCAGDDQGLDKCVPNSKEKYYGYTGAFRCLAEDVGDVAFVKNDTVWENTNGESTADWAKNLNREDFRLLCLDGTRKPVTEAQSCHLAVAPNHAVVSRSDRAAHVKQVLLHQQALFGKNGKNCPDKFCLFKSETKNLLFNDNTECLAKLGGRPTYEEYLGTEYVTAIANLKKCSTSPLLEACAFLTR
In data set [2] the target is T1, lactoferrin (LF). Kind of data set: RIFTS (porous Si interferometry); PEG-passivated, LF-spiked porcine GI fluid, 37 C; apparent, LOD 600 nM suggests uM; Selection buffer: PBS (137 mM NaCl, 10 mM Na2HPO4, 2.7 mM KCl, 2 mM KH2PO4) + 1 mM MgCl2, pH 7.4, room temperature; GI fluid at 37 C.
Data set [3] deals with T1, lactoferrin (LF). Kind of data set: RIFTS (porous Si interferometry); cell setup, selection buffer, Tris-passivated, 1 mM Mg2+; apparent; Selection buffer: PBS (137 mM NaCl, 10 mM Na2HPO4, 2.7 mM KCl, 2 mM KH2PO4) + 1 mM MgCl2, pH 7.4, room temperature; GI fluid at 37 C.
Data set [4] has as its target T1, lactoferrin (LF). Kind of data set: RIFTS (porous Si interferometry); plain microchannel, 30 ul/min; Selection buffer: PBS (137 mM NaCl, 10 mM Na2HPO4, 2.7 mM KCl, 2 mM KH2PO4) + 1 mM MgCl2, pH 7.4, room temperature; GI fluid at 37 C.
For data set [5], the target named is T1, lactoferrin (LF). The data set is described as follows: RIFTS (porous Si interferometry); SHM (herringbone) microchannel, 30 ul/min; Selection buffer: PBS (137 mM NaCl, 10 mM Na2HPO4, 2.7 mM KCl, 2 mM KH2PO4) + 1 mM MgCl2, pH 7.4, room temperature; GI fluid at 37 C.

B1: Lac 9-2 anti-LF aptamer with T10 spacer (ssDNA)
DNA: CAGGCAGGACACCGTAACCGGTGCATCTATGGCTACTAGCTCTTCCTGCCTATTTTTTTTTT
modifications: 3'-amino, coupled via NHS/EDC to carboxylated porous Si
For B1, the Kd in the data set with lactoferrin (LF) [1] turned out to be 1.3 ± 0.6 µM; with lactoferrin (LF) [2], 0.0118 ± 0.0019 µM; with lactoferrin (LF) [3] it was 2.1 ± 0.9 µM; with lactoferrin (LF) [4], 2 ± 1 µM; in the data set with lactoferrin (LF) [5] it was 1.6 ± 0.6 µM.
